Substitutions are numbered along the chain they refer to.
T1: human 5T4 oncofoetal antigen (human, UniProt Q13641 32-420)
T1 construct: whole, on cells; also called hu 5T4; human 5T4 antigen
T1 sequence (looked up): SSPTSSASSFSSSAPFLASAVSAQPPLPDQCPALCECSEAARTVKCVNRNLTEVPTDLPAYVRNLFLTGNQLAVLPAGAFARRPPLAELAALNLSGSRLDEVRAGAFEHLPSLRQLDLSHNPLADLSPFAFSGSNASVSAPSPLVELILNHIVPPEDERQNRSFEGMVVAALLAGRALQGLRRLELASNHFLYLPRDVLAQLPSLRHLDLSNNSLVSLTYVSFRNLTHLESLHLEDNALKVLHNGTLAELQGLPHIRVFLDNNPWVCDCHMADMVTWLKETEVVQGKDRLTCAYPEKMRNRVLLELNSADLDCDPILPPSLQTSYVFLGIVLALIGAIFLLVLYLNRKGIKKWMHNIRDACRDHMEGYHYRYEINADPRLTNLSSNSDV

T2: cynomolgus monkey 5T4 antigen (cynomolgus monkey, UniProt Q4R8Y9 35-420)
T2 construct: whole, on cells; also called cyno 5T4
T2 sequence (looked up): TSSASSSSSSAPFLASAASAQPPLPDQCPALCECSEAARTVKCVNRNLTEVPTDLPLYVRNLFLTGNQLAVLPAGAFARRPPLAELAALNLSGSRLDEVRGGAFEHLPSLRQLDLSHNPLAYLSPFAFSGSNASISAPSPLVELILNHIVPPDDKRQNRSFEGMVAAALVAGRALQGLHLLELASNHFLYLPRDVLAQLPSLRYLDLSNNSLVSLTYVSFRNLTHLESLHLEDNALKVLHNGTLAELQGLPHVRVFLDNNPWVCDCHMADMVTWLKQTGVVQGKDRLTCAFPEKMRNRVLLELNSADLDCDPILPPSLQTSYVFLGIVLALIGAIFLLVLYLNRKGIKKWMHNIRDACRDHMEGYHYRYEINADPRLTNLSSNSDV

B1: chimeric anti-5T4 monoclonal antibody 847 (antibody, human IgG1, V domains shown)
VH: QSVEESGGRLVTPGTPLTLTCTVSGFSLSSYDMSWVRQAPGKGLEYIGYINSDGSAYYASWAKGRFTISKTSSTTVDLKITSPTTEDTATYFCARDAGSTYLYGMDPWGPGTLVTVSS
VL: DVVMTQTPASVSEPVGGTVTINCQASQSIYSYLAWYQQKPGQRPKLLIYAASTLASGVSSRFKGSGSGTQFTLTISDLESADAATYYCQCTYYGGTFNTFGGGTEVVVK
B2: chimeric anti-5T4 monoclonal antibody 811 (antibody, human IgG1, V domains shown)
VH: QSVEESGGRLVTPGTSLTLTCTASGFSLSTYAMIWVRQAPGKGLEWIGIINSSGYTYYANWAKGRFTISKTSTTVDLKITSPTTEDTATYFCARGNAGISYDVSFNLWGQGTLVTVSS
VL: AYDMTQTPASVEAGVGGTVTINCQASESISSWLAWYQQKPGQPPNLLIYEASKLASGVPSRFSGSGSGTEFTLTISGVESADAATYYCQQGWTSSNIDNAFGGGTEVVVK
B3: chimeric anti-5T4 monoclonal antibody 828 (antibody, human IgG1, V domains shown)
VH: QSVEESGGRLVTPGTPLTLTCTVSEIDLSTYAMSWVRQAPGKGLEWIGIISAGGSAYYASWAKGRFTISRTSTTVDLKMTSLTTEDTATYFCARGAAYAGYTYGFSFFDIWGPGTLVTVSL
VL: DIVMTQTPSSVSAAVGGTVTINCQASQNIYSNLAWYQQKPGQRPKLLIYGASNLESGVPSRFKGSGSGTEYTLTISDLESDDAATYYCQSIDYGNNYLGSFGGGTEVVVK
B4: chimeric anti-5T4 monoclonal antibody 908 (antibody, human IgG1, V domains shown)
VH: QSVEESGGRLVTPGTPLTLTCTVSGFSLSNFAMSWVRQAPGKGLEWIGIINGYGSIYYATWAKGRFTISKTSTTVDLKITSPTTEDTATYFCARGDAGRTYNHYFNIWGPGTLVTVSL
VL: DVVMTQTPASVEAAVGGTVTIKCQASQSISSWLSWYQQKPGQRPKLLIYAASNLASGVPSRFKGSGSGTQFTLTISDLESDDAATYYCQQGYTSYNVDNAFGGGTEVVVK
B5: humanized anti-5T4 antibody 789c with HC-41C mutation (antibody, V domains shown)
VH: QSVEESGGGLVQPGGSLRLSCAASGFSLSSYWMSWVRQACGKGLEWIGIIAGRGSTYYASWAKGRFTISRDNSKNTLYLQMNSLRAEDTAVYYCARVSSIYYTFNLWGQGTLVTVSS
VL: DIVMTQSPDSLAVSLGERATINCQSSQSVYSNNELSWYQQKPGQPPKLLIYYASTLASGVPDRFSGSGSGTDFTLTISSLQAEDVAVYYCQGSYYSGSGWYYAFGGGTKLEIKR
B6: humanized anti-5T4 antibody 833a with HC-41C mutation (antibody, human IgG1, kappa, V domains shown)
VH: EVQLVESGGGLIQPGGSLRLSCAASGIDLSHYVVGWVRQACGKGLEWVSIIYGSGRTYYANWAKGRFTISKDNSKNTLYVRMNSLRAEDTAVYYCARDASVSVYYWGYFDLWGQGTLVTVSS
VL: AYDMTQSPSSVSASVGDRVTITCQASQSIGSELAWYQQKPGKAPKLLIYRASTLESGVPSRFSGSGSGTDFTLTISSLQPEDFATYYCQQGYTYSEIDNAFGGGTKVEIKR
B7: humanized anti-5T4 antibody 833d with HC-41C mutation (antibody, human IgG1, kappa, V domains shown)
VH: QSLEESGGGLVQPGGSLRLSCAASGIDLSHYVVGWVRQACGKGLEWIGIIYGSGRTYYANWAKGRFTISRHNSKNTLYLQMNSLRAEDTAVYYCARDASVSVYYWGYFDLWGQGTLVTVSS
VL: B6 VL with A1D, Y2I, D3Q, V11L, K42Q, D70E, L73F, F83L, G103Q, V107L
B8: humanized anti-5T4 antibody 833c with HC-41C mutation (antibody, human IgG1, kappa, V domains shown)
VH: B6 VH with V5E, I12V, Q13K, K71R, V80L, R81Q, Q114R
VL: B6 VL with A1D, Y2I, D3Q, S10T, V11L, D70E, E81D, G103Q
B9: humanized anti-5T4 antibody 833b with HC-41C mutation (antibody, human IgG1, kappa, V domains shown)
VH: B6 VH with I12V, K71R, Y79F, V80L, A87V, Y94F
VL: B6 VL
B10: humanized anti-5T4 antibody 789a with HC-41C mutation (antibody, V domains shown)
VH: EVKVEESGGGLVQPGGSLRLSCAASGFSLSSYWMSWVRQACGKGLEWVSIIAGRGSTYYASWAKGRFTISKDNSEGMVYLQMNSLRAEDTAVYYCARVSSIYYTFNLWGQGTTVTVSS
VL: EIVLTQSPSSLSASVGDRVTITCQSSQSVYSNNELSWYQQKPGKAPKLLIYYASTLASGVPSRFSGSGSGTDFTLTISSLQPEDFATYYCQGSYYSGSGWYYAFGQGTKLEIKR
B11: humanized anti-5T4 antibody 789d with HC-41C mutation (antibody, V domains shown)
VH: B5 VH
VL: B10 VL with E1A, I2Q, Q106G, L110V
B12: humanized anti-5T4 antibody 789b with HC-41C mutation (antibody, V domains shown)
VH: EVQLLESGGSLVLPGGSLRLSCAASGFSLSSYWMSWVRQACGKGLEWVSIIAGRGSTYYASWAKGRFTISRDNSKNTLYMQMNSLRAEDTALYFCARVSSIYYTFNLWGQGTLVTVSS
VL: B10 VL
B13: humanized anti-5T4 antibody 825b with HC-41C mutation (antibody, human IgG1, kappa, V domains shown)
VH: EVQLEESGGGLVKPGGSLRLSCAASGIDLSSYGMGWVRQACGKGLEWVSIISRNSVTYYATWAKGRFTISRDNSKNTLYLQMNSLRAEDTAVYYCARRATYSGALGYFDIWGRGTLVTVSS
VL: EIVMTQSPSSLSASVGDRVTITCQASENIYSTLAWYQQKPGKAPKLLIYDAFDLASGVPSRFSGSGSGTDYTLTISSLQPEDFATYYCQQGYSGTNVDNAFGQGTKLEIKR
B14: chimeric anti-5T4 antibody 899 with HC-41C mutation (antibody, human IgG1, V domains shown)
VH: QSVEESGGRLVTPGTPLTLTCTVSGFSLSSYTMSWVRQACGKGLEYIGIISSSDGTWYANWVKGRFTISKTSTTVDLKMTSLTTEDTATYFCARDGTGNKYYTWDRLDLWGQGTLVTVSS
VL: NIVMTQTPSPVSGAVGGTVTINCQASQSIYNELSWYQQKPGQPPKLLIYYASTLASGVSSRFKGSGSGTQFTLTISGVESVDAATYYCQQGYSSSNVDNVFGGGTEVVVK
notes: Human IgG1 constant parts; also called chimeric 899; 899 chimeric
B15: prior art anti-5T4 antibody H8 (H8 humanized variant 1) (antibody, human IgG1, kappa, V domains shown)
VH: QVQLVQSGAEVKKPGASVKVSCKASGYSFTGYYMHWVKQSPGQGLEWIGRINPNNGVTLYNQKFKDRVTMTRDTSISTAYMELSRLRSDDTAVYYCARSTMITNYVMDYWGQGTLVTVSS
VL: DIVMTQSPDSLAVSLGERATINCKASQSVSNDVAWYQQKPGQSPKLLISYTSSRYAGVPDRFSGSGSGTDFTLTISSLQAEDVAVYFCQQDYNSPPTFGGGTKLEIKR

What follows are binders tested against T1, human 5T4 oncofoetal antigen (assay: flow cytometry, PA-1 cells).
Procedure: (§1) 17 antibodies were selected and affinity to 5T4 antigen was measured using MDA-MB-468 cells, PA-1 cells and Chinese Hamster Ovary (CHO) mammalian cells expressing human or cyno 5T4 antigen (Table 2). In the current application the utilized CHO cells are referred to as CHOZN as these CHO cells expressing human or cyno 5T4 antigen were obtained using the CHOZN® Platform of Sigma-Aldrich. CHOZN cells (SAFC) were transiently transfected, using an Amaxa nucleofector device (Lonza) according to the manufacturer's instructions. Standard, commercially available mammalian expression vectors (SAFC, Life Technologies) were used, which contained the full length human and cyno 5T4 antigen coding sequence (according to accession number NP 006661.1 and Q4R8Y9 respectively), preceded by a human CMV promoter. Transiently transfected CHOZN cells were cultured according the manufacturer's instructions, before being used in antibody binding studies. The 17 selected antibodies are characterised by the amino acid sequences according to the following table (Table 1).
(§2) MDA-MB-468 cells, PA-1 cells or CHOZN cells expressing human or cyno 5T4 antigen (100,000 cells/well in a 96-well plate) were washed three times with ice-cold FACS buffer (1×PBS (Lonza) containing 0.2% v/w BSA (Sigma-Aldrich, St. Louis, Mo.)) and 0.02% v/w NaN3 (Sigma-Aldrich), followed by the addition of a concentration range of each primary mAb (50 μl/well) diluted in ice-cold FACS buffer. After an incubation of 30 minutes at 4° C., cells were washed three times with ice-cold FACS buffer and 50 μl/well secondary mAb (AffiniPure F(ab′)2 fragment Goat-anti-human IgG-APC, 1:6,000 dilution, Jackson Immuno Research) was added. After 30 minutes at 4° C., cells were washed twice and resuspended in 150 μl FACS buffer. Fluorescence intensities were determined by flow cytometry (BD FACSVerse, Fanklin Lakes, N.J.) and indicated as the median fluorescence intensity (MFI). Curves were fitted by nonlinear regression using the sigmoidal dose-response equation with variable slope (four parameters) in GraphPad Prism (version 5.01/6.01 for Windows, GraphPad, San Diego, Calif.). EC₅₀ values were calculated as the concentration in μg/ml that gives a response half way between bottom and top of the curve, when using a 4 parameter logistic fit.

Binder	EC50 [µg/mL]
B1	0.22
B2	0.4
B3	0.1
B4	0.04

The binders below were run against T1, human 5T4 oncofoetal antigen (assay: flow cytometry, MDA-MB-468 cells).
Procedure: as §1, §2

Binder	EC50 [µg/mL]
B1	0.2
B2	0.73
B3	0.1
B4	0.21

These binders were tested against T2, cynomolgus monkey 5T4 antigen (assay: flow cytometry, CHOZN cells expressing cyno 5T4).
Procedure: as §2

Binder	fold improvement of binding compared to H8 on cyno 5T4 [fold]
B1	32
B2	32
B3	7
B4	32

These binders were tested against T1, human 5T4 oncofoetal antigen (assay: flow cytometry, CHOZN cells expressing hu 5T4).
Procedure: as §1, §2

Binder	EC50 [µg/mL]
B1	0.22
B2	0.34
B3	0.19
B4	0.23

Biological target: T1, human 5T4 oncofoetal antigen
Test: flow cytometry, CHOZN cells expressing hu 5T4
Remark: another data set of the same source

Binder	EC50 [µg/mL]
B5	0.2
B6	0.22
B7	0.18
B8	0.18
B9	0.15
B10	0.2
B11	0.12
B12	0.15
B13	0.16
B14	0.14

Biological target: T2, cynomolgus monkey 5T4 antigen
Test: flow cytometry, CHOZN cells expressing cyno 5T4
Remark: another data set of the same source
Procedure: as §1, §2

Binder	EC50 [µg/mL]
B1	0.2
B2	0.25
B3	0.82
B4	0.24
B15	8.11

Biological target: T2, cynomolgus monkey 5T4 antigen
Test: flow cytometry, CHOZN cells expressing cyno 5T4
Remark: another data set of the same source

Binder	EC50 [µg/mL]
B5	0.21
B6	0.12
B7	0.16
B8	0.17
B9	0.18
B10	0.33
B11	0.15
B12	0.24
B13	0.46
B14	0.18
B15	1.99
